Experimental data: the supplement of paper PMC10567573
± gives the standard deviation.

Experiment: protein stability index of a GFP-peptide fusion (GPS, HEK-293T) (PSI 1-6); higher = more stable
Conditions: c terminus: a fixed tail appended
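Note: 24-mer peptide tiles fused after GFP, lentivirally expressed, FACS-sorted into six equal bins by GFP/DsRed ratio, decoded by Illumina sequencing, PSI is the read-weighted mean bin number.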

Sequence | protein stability index (treatment: DMSO) | protein stability index (treatment: MLN4924 1 uM, 8 h)
ENKDHSLERGRASLIFSLKNEVGG [TPH1] | 4.09 ± 0.18 | 3.82 ± 0.38
EPDAADGPYDPNSVRISFAKGWGP [SMAD6] | 4.17 ± 0.13 | 4.19 ± 0.17
EPEEEILGSDDEEQEDPADYCKGG [SRPK2] | 5.54 ± 0.29 | 5.55 ± 0.24
EPEMAVFLQNAKTLLKKISEASKA [TRIM55] | 2.46 ± 0.3 | 2.25 ± 0.22
EPLYNWQATKASLKERFAFLFNSE [BTBD1] | 2.97 ± 0.22 | 2.78 ± 0.37
EPTEVEEVVPALEPTETLLSEKEI [BCL2L13] | 5.5 ± 0.35 | 5.71 ± 0.12
EPYARLPPHKHVARPTEVLAGTQL [TRIB3] | 4.05 ± 0.1 | 3.88 ± 0.28
EQCLPSLENSKYCRFNQDPEAVDE [ATE1] | 5.16 ± 0.45 | 5.16 ± 0.26
EQLMYIKEDLIIPHHHSFYDFIVT [FAM50A] | 2.42 ± 0.21 | 2.27 ± 0.21
EQTAPGDSTGYMEVSLDSLDLRVK [EHMT1] | 4.59 ± 0.32 | 4.87 ± 0.2
ERCNQLLRALKLVITALKCHKYDR [ZER1] | 2.56 ± 0.47 | 2.71 ± 0.47
ERDRISTRRSSYEDSSLPSINALL [HNF4A] | 3.79 ± 0.097 | 3.84 ± 0.49
ERTGFSIRPVAGYLSPRDFLSGLA [TPH1] | 2.25 ± 0.048 | 2.36 ± 0.35
ESQVKSLCEKAKEILTKESNVQEV [PPP2CA] | 5.45 ± 0.11 | 5.18 ± 0.18
ESRALSTSSNLGSQYQCENGVSGP [TBX5] | 4.95 ± 0.25 | 5.06 ± 0.21
ESRQTEVVIRDIDERAMELLIDFA [KLHL20] | 2.9 ± 0.095 | 2.96 ± 0.24
ESSMEDCLAHLGEKVSQELKEPLH [BCL2L13] | 4.97 ± 0.2 | 5.09 ± 0.32
ETIKDLMRQFLRGLDFLHANCIVH [CDK4] | 3.06 ± 0.64 | 3.23 ± 0.56
ETLITTIDSSSSWWTNWVIPAISA [CYB5A] | 2.47 ± 0.63 | 2.48 ± 0.49
ETLSGHGPLAQPLTLQVLVAGNPQ [ADAMTS4] | 3 ± 0.43 | 2.98 ± 0.31
ETQEQDVDLVQKYLEKYYNLKNDG [MMP1] | 3.99 ± 0.38 | 3.92 ± 0.3
EVFEGREDSIFGDPKKLLTQYFVQ [MAGEA6] | 2.34 ± 0.18 | 2.46 ± 0.18
EVKFPNASDMFRRLRDAGFRVTLW [MYORG] | 2.97 ± 0.74 | 2.17 ± 0.31

Sequence | protein stability index (treatment: DMSO) | protein stability index (treatment: MLN4924 1 uM, 8 h)
EVQHLREEKSKQFLDLMETIDKQR [LRRC45] | 4.51 ± 0.32 | 4.49 ± 0.25
EVQKLVESGVDVNSQNEVNGWTCL [ANKRD40] | 3.43 ± 0.53 | 3.33 ± 0.16
EVRDRMLLKITIPNAFIGSDVVDW [DVL3] | 2.17 ± 0.43 | 2.46 ± 0.15
FAVFPSLNEEQTLQEVPTGLDSIS [ETS2] | 3.81 ± 0.32 | 3.79 ± 0.39
FDQTVFQEVFEPPHYELCTLRGTG [NETO1] | 2.96 ± 0.12 | 2.97 ± 0.3
FESGSVSFLNVTKSSLIWSYPAGS [TRIM43] | 2.13 ± 0.41 | 2.11 ± 0.13
FFIGFTALVIMWQKHYVYGPLPQS [COX4I1] | 3.22 ± 0.34 | 3.36 ± 0.57
FFRKLLDCCQVSAPNRFFQKLNVF [NLN] | 2.02 ± 0.073 | 2.47 ± 0.74
FGEDYYGPSRSRHRRRSRERGPYR [CLK3] | 3.27 ± 0.78 | 4.29 ± 0.89
FGEVRPYFYLGGARGAGPPEPLRI [TRIM35] | 2.63 ± 0.91 | 2.76 ± 0.18
FGSGSNGCLGHGSLTDISQPTIVE [NEK8] | 3.5 ± 0.34 | 3.91 ± 0.2
FKAKEAAALGSRGSCSTEVEKETQ [ATP6V1G1] | 2.94 ± 0.44 | 3.26 ± 0.27
FKCRNKTSGQVVAVKKFVESEDDP [CDKL4] | 4.7 ± 0.089 | 4.94 ± 0.28
FKLLAGRWPFDHNDFGVFLCKLFP [EDNRA] | 2.34 ± 0.37 | 2.5 ± 0.38
FKRTIQGSIEYSCPASNECEITKR [ESRRA] | 3.88 ± 0.23 | 4.19 ± 0.23
FKYINTVISCTIFIVGMVGNATLL [EDNRA] | 3.56 ± 0.57 | 2.89 ± 0.61
FMTTNVPNVYPAAPQGGMAALNMS [ADD1] | 2.73 ± 0.41 | 2.87 ± 0.36
FPALLSTGEFLKLPFERLAFVLSS [KLHL13] | 2.95 ± 0.74 | 3.08 ± 0.73
FPGRPMGHLSKDVDENDSHEGEDQ [DLC1] | 4.7 ± 0.38 | 5.06 ± 0.31
FQDKRNLYLIMEFLPGGDMMTLLM [STK38L] | 3.34 ± 0.31 | 
FQEQVEKLKALHVDSAEYSCLKAI [NR2F2] | 3.61 ± 0.2 | 3.74 ± 0.23
FQLPERGSRLCLYEDGTELTEDYF [DFFB] | 3.71 ± 0.44 | 3.7 ± 0.47
FREDGAYEFNPDFLEEAHEWNQKR [N4BP2L1] | 4.71 ± 0.16 | 4.53 ± 0.26

Sequence | protein stability index (treatment: DMSO) | protein stability index (treatment: MLN4924 1 uM, 8 h)
FRHLRLQYIISDLASARIIEQDAV [GMCL1] | 2.6 ± 0.73 | 2.44 ± 0.48
FSDPSQSDPETKDFWLNMAALTEA [FCHO1] | 3.4 ± 0.47 | 3.79 ± 0.37
FSEQVFKVASSDLVNMGISVVSYT [FLOT1] | 2.66 ± 0.72 | 2.39 ± 0.44
FSLVGKRAISTSVCVRAHESVVKS [COX4I1] | 2.75 ± 0.14 | 2.94 ± 0.3
FVDSIRRQFEFSVDSFQIILDSLL [TENT5C] | 2.33 ± 0.37 | 2.31 ± 0.14
FVGYNPYSHLAYNNYRLGGNPSTN [SMARCE1] | 2.87 ± 0.21 | 2.54 ± 0.2
FVQRSGNYFVTMFDDYSATLPLTL [SLC6A17] | 2.65 ± 0.18 | 2.65 ± 0.55
FVRGDHRDNSPFDGPGGNLAHAFQ [MMP1] | 2.34 ± 0.6 | 3.06 ± 0.29
FWPAKVMQKEDNQVDVRFFGHHHQ [ZMYND11] | 2.71 ± 0.52 | 2.47 ± 0.18
FYMFAWTHVTLLITVTQSHLVIQN [CDS1] | 3.01 ± 0.38 | 3 ± 0.3
GARARGVAMLGVFLVSAVAHEYIF [SOAT2] |  | 3.591 ± 0.02
GARPPPTPPASPPPSVLISKNEVG [KMT2E] | 4.91 ± 0.12 | 5.08 ± 0.18
GATCMFVASKMKETIPLTAEKLCI [CCND1] | 2.34 ± 0.34 | 1.99 ± 0.41
GCFTLPRSEPIRPIDPAAWVSHTA [DVL3] | 2.81 ± 0.25 | 3 ± 0.42
GCSAVSEPASESVVGALPAEHQFS [TRAF3IP2] | 4.38 ± 0.34 | 4.6 ± 0.27
GDEISIKKKNTNKQEMGTYLRFIV [ZMYND11] | 2.12 ± 0.087 | 2.12 ± 0.24
GDFDFDEVKFPNASDMFRRLRDAG [MYORG] | 3.98 ± 0.16 | 3.98 ± 0.2
GEDSSTSSSTPLEDEEPQEPNRLE [RTN2] | 5.56 ± 0.26 | 5.57 ± 0.25
GELGSIGDHERAIDFSPYLEPLGA [CEBPB] | 4.21 ± 0.6 | 4.18 ± 0.32
GEQPQFWSKTQVLDWISYQVEKNK [ELF3] | 3.02 ± 0.13 | 3.29 ± 0.33
GETGSGDQAGGEGKHITVFKTYIS [MYOZ1] | 3.97 ± 0.14 | 4.06 ± 0.15
GFFSSAFQARLSGNNLHNASIPEH [POMT2] | 2.81 ± 0.44 | 3.07 ± 0.35
GGCYFGPDVTQQLLQKYNMQFLIR [PPEF2] | 1.92 ± 0.29 | 2.2 ± 0.37

Sequence | protein stability index (treatment: DMSO) | protein stability index (treatment: MLN4924 1 uM, 8 h)
GGGGTQRLPRAIGMSLAKELIFSA [AUH] | 2.54 ± 0.21 | 2.69 ± 0.58
GGNVECIKLLQSSGADFHKKDKCG [ANKRD44] | 4.48 ± 0.17 | 4.38 ± 0.1
GGSGGGAGGAGGGVTEEQEGFADG [JUNB] | 5.5 ± 0.087 | 5.42 ± 0.43
GHHAEKLPAGAGAPKAGLEEAPAV [TNFSF13B] | 5.22 ± 0.3 | 5.27 ± 0.2
GHSFCRPCLCLSWEEAQSPANCPA [TRIM43] | 3.47 ± 0.34 | 3.66 ± 0.29
GIVGGFTQMIREGGARSLWRGNGI [SLC25A25] | 2.22 ± 0.093 | 2.27 ± 0.2
GKKFLLLSINRYERKKNLTLALEA [ALG2] | 2.35 ± 0.88 | 2.6 ± 0.39
GKKYNTMLGYKRHLALHAASSGDL [PLAGL1] | 3.15 ± 0.12 | 3.28 ± 0.27
GKLVLSSLPKRLCLVCGDVASGYH [ESRRA] | 2.38 ± 0.45 | 1.97 ± 0.33
GLDPCLLEDELDKSVQGTGLAFIA [SLC6A17] | 3.28 ± 0.31 | 3.28 ± 0.44
GLPGPEAARSGDAAANKLFHYIPG [PLEKHN1] | 3.93 ± 0.38 | 4.15 ± 0.42
GLPGSFIKEVQKGGPADLAGLEDE [PDZK1] | 5.59 ± 0.14 | 5.37 ± 0.25
GLRQRASNKVQDSAPVETPRGKPP [HMOX1] | 5 ± 0.25 | 4.83 ± 0.2
GLSPYSDYEFRVVAVNNIGRGPPS [PTPRD] | 2.41 ± 0.35 | 3.14 ± 0.033
GLTFQGLLPLTELSVCPLEGSREH [PLEKHN1] | 3.57 ± 0.35 | 3.62 ± 0.35
GPGSKRDAHFCAVCSDYASGYHYG [ESR2] | 2.42 ± 0.2 | 2.65 ± 0.32
GPMEEVERQVLPDPEVLEAVGDRQ [PBXIP1] | 5.62 ± 0.25 | 5.59 ± 0.21
GPPAPVGPPHARISQHGDPLLSNT [EMID1] | 4.37 ± 0.24 | 4.55 ± 0.72
GPSNTSHSSSRDSHLSNGLDPVAE [C2CD2L] | 5.337 ± 0.041 | 5.23 ± 0.089
GQYRANEGTSSIVMEIQKQIEKKE [TAF7L] | 5.06 ± 0.35 | 5.16 ± 0.46
GRATKRRKKSGDLKKAKVQVERMR [FBXO34] | 4.25 ± 0.072 | 4.26 ± 0.65
